± gives the standard error. This sample holds only a part of the variants without activity. Where only a bound is given, the exact number is not on record here.

Sequences and labels used below:
B1: glmS ribozyme (parent)
chain: AUAAAAGCGCCAGAACUACAGAAAUGUAGUUGACGAGGAGGAGGUUUAUCGAAUUUUCGGCGGAUGCCUCCAAA

Common to all, as to settings: with glucosamine-6-phosphate
Data set [1] covers variants of B1. In words: self-cleavage kobs at 40 uM GlcN6P; higher = faster cleavage; RNA array. A digest of the protocol:
(§1)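 Using a hybridised Cy3 probe at 37 °C, barcoded ribozyme variants transcribed in situ by E. coli RNA polymerase on sequenced MiSeq chips were monitored across tiles imaged over ~14 h. The flow contained glucosamine-6-phosphate from 40 μM to 10 mM in HEPES/KCl/Mg(OAc)2 buffer. Signals were normalised to baseline and to non-cleaving reference variants before per-tile medians were fit to one- or two-exponential decays to yield kobs. Weighted Michaelis–Menten fits across concentrations gave kcat and KM.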

Variants of B1 are the subject of data set [2]. Briefly: self-cleavage kobs at 640 uM GlcN6P; higher = faster cleavage; RNA array. The essentials:
as §1

In data set [3] the parent is B1. In words: self-cleavage kobs at 10000 uM GlcN6P; higher = faster cleavage; RNA array. A digest of the protocol:
as §1

Data set [4] covers variants of B1. In words: self-cleavage kobs at 160 uM GlcN6P; higher = faster cleavage; RNA array. A digest of the protocol: as §1
The variants in data set [5] derive from B1. Briefly: self-cleavage kobs at 2500 uM GlcN6P; higher = faster cleavage; RNA array. A digest of the protocol:
as §1

Turning to C10U G40U A48U, in the data set with glucosamine-6-phosphate [1], the “self-cleavage kobs at 40 uM GlcN6P” value is less than 1e-05 s⁻¹. Further, in the data set with glucosamine-6-phosphate [2], the “self-cleavage kobs at 640 uM GlcN6P” value is less than 1e-05 s⁻¹. Further, in the data set with glucosamine-6-phosphate [3], the “self-cleavage kobs at 10000 uM GlcN6P” value is less than 1e-05 s⁻¹.
G7A A14U C58A C68G: in the data set with glucosamine-6-phosphate [1], the “self-cleavage kobs at 40 uM GlcN6P” value was 0.000142 ± 4e-05 s⁻¹. For the same variant, the “self-cleavage kobs at 640 uM GlcN6P” value with glucosamine-6-phosphate [2] came out at 0.00047 ± 0.00023 s⁻¹. Besides, in the data set with glucosamine-6-phosphate [3], the “self-cleavage kobs at 10000 uM GlcN6P” value was 0.00011 ± 2.5e-05 s⁻¹.
As to A6G G32C C34G C71U, in the data set with glucosamine-6-phosphate [1], the “self-cleavage kobs at 40 uM GlcN6P” value was less than 1e-05 s⁻¹. Further, in the data set with glucosamine-6-phosphate [4], the “self-cleavage kobs at 160 uM GlcN6P” value is less than 1e-05 s⁻¹. Besides, the “self-cleavage kobs at 640 uM GlcN6P” value with glucosamine-6-phosphate [2] is less than 1e-05 s⁻¹.
For the variant A6G G13C, the “self-cleavage kobs at 40 uM GlcN6P” value with glucosamine-6-phosphate [1] is less than 1e-05 s⁻¹. The “self-cleavage kobs at 160 uM GlcN6P” value with glucosamine-6-phosphate [4] was less than 1e-05 s⁻¹. Further, the “self-cleavage kobs at 640 uM GlcN6P” value in the data set with glucosamine-6-phosphate [2] was less than 1e-05 s⁻¹. Moreover, the “self-cleavage kobs at 2500 uM GlcN6P” value in the data set with glucosamine-6-phosphate [5] is less than 1e-05 s⁻¹. Also, the “self-cleavage kobs at 10000 uM GlcN6P” value with glucosamine-6-phosphate [3] is less than 1e-05 s⁻¹.
A33C C58A: the “self-cleavage kobs at 40 uM GlcN6P” value with glucosamine-6-phosphate [1] was less than 1e-05 s⁻¹. The “self-cleavage kobs at 640 uM GlcN6P” value with glucosamine-6-phosphate [2] was less than 1e-05 s⁻¹.
On to A15C C16G, for which the “self-cleavage kobs at 40 uM GlcN6P” value with glucosamine-6-phosphate [1] turned out to be 5.89e-05 ± 1.4e-05 s⁻¹. The “self-cleavage kobs at 640 uM GlcN6P” value with glucosamine-6-phosphate [2] came out at 0.000438 ± 5.6e-05 s⁻¹. In addition, in the data set with glucosamine-6-phosphate [3], the “self-cleavage kobs at 10000 uM GlcN6P” value was determined as 0.00295 ± 0.00045 s⁻¹.
Regarding A6C G51A, the “self-cleavage kobs at 40 uM GlcN6P” value with glucosamine-6-phosphate [1] was less than 1e-05 s⁻¹. For the same variant, in the data set with glucosamine-6-phosphate [4], the “self-cleavage kobs at 160 uM GlcN6P” value was less than 1e-05 s⁻¹. For the same variant, the “self-cleavage kobs at 2500 uM GlcN6P” value with glucosamine-6-phosphate [5] was less than 1e-05 s⁻¹. Moreover, the “self-cleavage kobs at 10000 uM GlcN6P” value in the data set with glucosamine-6-phosphate [3] was less than 1e-05 s⁻¹.
Consider G13C U57G, for which the “self-cleavage kobs at 40 uM GlcN6P” value in the data set with glucosamine-6-phosphate [1] is less than 1e-05 s⁻¹.
For C8A A42G C68U, in the data set with glucosamine-6-phosphate [1], the “self-cleavage kobs at 40 uM GlcN6P” value is less than 1e-05 s⁻¹. Further, in the data set with glucosamine-6-phosphate [3], the “self-cleavage kobs at 10000 uM GlcN6P” value was less than 1e-05 s⁻¹.
Turning to A42U G63U, in the data set with glucosamine-6-phosphate [1], the “self-cleavage kobs at 40 uM GlcN6P” value was less than 1e-05 s⁻¹. Also, the “self-cleavage kobs at 160 uM GlcN6P” value with glucosamine-6-phosphate [4] was less than 1e-05 s⁻¹. In the data set with glucosamine-6-phosphate [5], the “self-cleavage kobs at 2500 uM GlcN6P” value is less than 1e-05 s⁻¹. In the data set with glucosamine-6-phosphate [3], the “self-cleavage kobs at 10000 uM GlcN6P” value was less than 1e-05 s⁻¹.
Turning to U30A G35A G51A G60U, in the data set with glucosamine-6-phosphate [1], the “self-cleavage kobs at 40 uM GlcN6P” value was less than 1e-05 s⁻¹. Further, the “self-cleavage kobs at 10000 uM GlcN6P” value in the data set with glucosamine-6-phosphate [3] is less than 1e-05 s⁻¹.
Consider G9U U69C, for which, in the data set with glucosamine-6-phosphate [1], the “self-cleavage kobs at 40 uM GlcN6P” value is less than 1e-05 s⁻¹. In addition, in the data set with glucosamine-6-phosphate [5], the “self-cleavage kobs at 2500 uM GlcN6P” value is less than 1e-05 s⁻¹.
U31C A39G C50U U54G C58A G60C G62U: in the data set with glucosamine-6-phosphate [1], the “self-cleavage kobs at 40 uM GlcN6P” value was less than 1e-05 s⁻¹. The “self-cleavage kobs at 10000 uM GlcN6P” value with glucosamine-6-phosphate [3] is less than 1e-05 s⁻¹.
In the case of C8U G43U G44U C71A, the “self-cleavage kobs at 40 uM GlcN6P” value in the data set with glucosamine-6-phosphate [1] is less than 1e-05 s⁻¹. In addition, the “self-cleavage kobs at 640 uM GlcN6P” value in the data set with glucosamine-6-phosphate [2] is less than 1e-05 s⁻¹.
As for A12C U54A, the “self-cleavage kobs at 40 uM GlcN6P” value with glucosamine-6-phosphate [1] came out at 0.000707 ± 7e-05 s⁻¹. Also, the “self-cleavage kobs at 160 uM GlcN6P” value in the data set with glucosamine-6-phosphate [4] came out at 0.00199 ± 0.00034 s⁻¹. The “self-cleavage kobs at 640 uM GlcN6P” value with glucosamine-6-phosphate [2] worked out at 0.0159 ± 0.0035 s⁻¹. In addition, in the data set with glucosamine-6-phosphate [5], the “self-cleavage kobs at 2500 uM GlcN6P” value was 0.00841 ± 0.0015 s⁻¹. Also, the “self-cleavage kobs at 10000 uM GlcN6P” value with glucosamine-6-phosphate [3] was 0.0301 ± 0.0049 s⁻¹.
As to A12G A14U G38A, the “self-cleavage kobs at 40 uM GlcN6P” value with glucosamine-6-phosphate [1] was less than 1e-05 s⁻¹. In addition, the “self-cleavage kobs at 10000 uM GlcN6P” value with glucosamine-6-phosphate [3] is less than 1e-05 s⁻¹.
For A36G U56G, in the data set with glucosamine-6-phosphate [1], the “self-cleavage kobs at 40 uM GlcN6P” value was less than 1e-05 s⁻¹. In the data set with glucosamine-6-phosphate [2], the “self-cleavage kobs at 640 uM GlcN6P” value is less than 1e-05 s⁻¹.
Consider G40A G60A, for which the “self-cleavage kobs at 40 uM GlcN6P” value with glucosamine-6-phosphate [1] is less than 1e-05 s⁻¹. The “self-cleavage kobs at 160 uM GlcN6P” value with glucosamine-6-phosphate [4] was less than 1e-05 s⁻¹. Also, the “self-cleavage kobs at 640 uM GlcN6P” value with glucosamine-6-phosphate [2] is less than 1e-05 s⁻¹.
With A6G C16U U30A G43U G62U C70A, in the data set with glucosamine-6-phosphate [1], the “self-cleavage kobs at 40 uM GlcN6P” value was less than 1e-05 s⁻¹. Moreover, in the data set with glucosamine-6-phosphate [3], the “self-cleavage kobs at 10000 uM GlcN6P” value was less than 1e-05 s⁻¹.
On to G32A U57G, for which, in the data set with glucosamine-6-phosphate [1], the “self-cleavage kobs at 40 uM GlcN6P” value was less than 1e-05 s⁻¹.
As for G43U C61A, the “self-cleavage kobs at 40 uM GlcN6P” value in the data set with glucosamine-6-phosphate [1] is less than 1e-05 s⁻¹. For the same variant, the “self-cleavage kobs at 160 uM GlcN6P” value with glucosamine-6-phosphate [4] is less than 1e-05 s⁻¹. For the same variant, the “self-cleavage kobs at 640 uM GlcN6P” value with glucosamine-6-phosphate [2] was less than 1e-05 s⁻¹. In the data set with glucosamine-6-phosphate [5], the “self-cleavage kobs at 2500 uM GlcN6P” value is less than 1e-05 s⁻¹. Besides, the “self-cleavage kobs at 10000 uM GlcN6P” value with glucosamine-6-phosphate [3] is less than 1e-05 s⁻¹.
In the case of G43U C61G, the “self-cleavage kobs at 40 uM GlcN6P” value with glucosamine-6-phosphate [1] is less than 1e-05 s⁻¹. The “self-cleavage kobs at 640 uM GlcN6P” value with glucosamine-6-phosphate [2] is less than 1e-05 s⁻¹. Further, the “self-cleavage kobs at 2500 uM GlcN6P” value with glucosamine-6-phosphate [5] is less than 1e-05 s⁻¹. Moreover, the “self-cleavage kobs at 10000 uM GlcN6P” value in the data set with glucosamine-6-phosphate [3] was less than 1e-05 s⁻¹.
With A12C G35U, the “self-cleavage kobs at 40 uM GlcN6P” value with glucosamine-6-phosphate [1] was less than 1e-05 s⁻¹. Also, the “self-cleavage kobs at 160 uM GlcN6P” value with glucosamine-6-phosphate [4] was less than 1e-05 s⁻¹. In addition, the “self-cleavage kobs at 640 uM GlcN6P” value in the data set with glucosamine-6-phosphate [2] is less than 1e-05 s⁻¹. Moreover, the “self-cleavage kobs at 2500 uM GlcN6P” value with glucosamine-6-phosphate [5] was less than 1e-05 s⁻¹. Also, in the data set with glucosamine-6-phosphate [3], the “self-cleavage kobs at 10000 uM GlcN6P” value was less than 1e-05 s⁻¹.

Source of the values: the supplement of paper PMC7125110.
